Measurements reported in patent publication US20130115681.
Where a chain is given by its changes, count along the chain named.

Tests used:
Assay in all cases: cleavage_in_vitro
[1] = target: T1, SalI (Streptomyces albus G) (UniProt Q53608); conditions: NEB4, 37 C
T1 sequence: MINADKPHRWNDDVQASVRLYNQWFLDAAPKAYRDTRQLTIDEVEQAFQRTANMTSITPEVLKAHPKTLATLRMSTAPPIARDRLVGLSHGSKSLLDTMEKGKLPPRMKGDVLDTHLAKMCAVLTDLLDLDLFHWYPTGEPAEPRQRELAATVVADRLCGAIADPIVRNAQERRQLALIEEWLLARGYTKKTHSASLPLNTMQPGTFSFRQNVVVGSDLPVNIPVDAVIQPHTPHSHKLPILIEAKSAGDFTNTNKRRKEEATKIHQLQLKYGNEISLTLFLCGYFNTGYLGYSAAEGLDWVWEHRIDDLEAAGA

[2] = target: T2, SalI-HF R107A (Streptomyces albus G) (UniProt Q53608); conditions: NEB4, 37 C
T2 sequence: T1 sequence with R107A

[3] = system: T3, SbfI-HF K251A (Streptomyces species Bf-61?); conditions: NEB4, 37 C
T3 sequence: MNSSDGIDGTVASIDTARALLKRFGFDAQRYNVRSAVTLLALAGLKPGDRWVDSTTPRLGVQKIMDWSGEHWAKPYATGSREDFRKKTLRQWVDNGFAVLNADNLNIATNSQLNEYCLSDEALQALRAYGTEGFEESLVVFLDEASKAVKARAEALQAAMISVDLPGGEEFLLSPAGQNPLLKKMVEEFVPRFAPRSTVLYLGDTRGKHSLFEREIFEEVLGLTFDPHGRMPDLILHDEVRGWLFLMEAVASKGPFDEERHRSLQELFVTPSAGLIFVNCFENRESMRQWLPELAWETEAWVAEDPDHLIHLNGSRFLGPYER

BsmBI-HF N185Y/R232A = conditions: NEB4, 55 C
[4] = system: T4, SbfI (Streptomyces species Bf-61?); conditions: NEB4, 37 C
T4 sequence: T3 sequence with A251K

[5] = system: T5, SphI-HF K100A (Streptomyces phaeochromogenes); conditions: NEB4, 37 C
T5 sequence: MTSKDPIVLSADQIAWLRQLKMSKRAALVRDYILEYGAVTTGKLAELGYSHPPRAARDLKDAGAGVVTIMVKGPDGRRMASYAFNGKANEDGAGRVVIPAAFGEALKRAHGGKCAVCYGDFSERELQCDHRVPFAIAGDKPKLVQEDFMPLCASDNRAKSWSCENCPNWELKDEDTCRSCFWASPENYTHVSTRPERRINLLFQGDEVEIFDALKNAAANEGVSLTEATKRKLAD

[6] = target: T6, HindIII (Haemophilus influenzae Rd) (UniProt P43870); conditions: NEB4, 37 C; FI 250 in NEB2
T6 sequence: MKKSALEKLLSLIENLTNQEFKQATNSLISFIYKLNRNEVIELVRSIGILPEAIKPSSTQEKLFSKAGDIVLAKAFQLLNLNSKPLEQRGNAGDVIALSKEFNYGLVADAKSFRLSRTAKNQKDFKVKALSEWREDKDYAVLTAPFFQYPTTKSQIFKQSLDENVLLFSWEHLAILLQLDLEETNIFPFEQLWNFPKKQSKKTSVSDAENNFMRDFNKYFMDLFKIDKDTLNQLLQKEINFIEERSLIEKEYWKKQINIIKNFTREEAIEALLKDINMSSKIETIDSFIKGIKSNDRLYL

[7] = target: T7, PstI-HF D91A (Providencia stuartii 164) (UniProt P00640); conditions: NEB4, 37 C
T7 sequence: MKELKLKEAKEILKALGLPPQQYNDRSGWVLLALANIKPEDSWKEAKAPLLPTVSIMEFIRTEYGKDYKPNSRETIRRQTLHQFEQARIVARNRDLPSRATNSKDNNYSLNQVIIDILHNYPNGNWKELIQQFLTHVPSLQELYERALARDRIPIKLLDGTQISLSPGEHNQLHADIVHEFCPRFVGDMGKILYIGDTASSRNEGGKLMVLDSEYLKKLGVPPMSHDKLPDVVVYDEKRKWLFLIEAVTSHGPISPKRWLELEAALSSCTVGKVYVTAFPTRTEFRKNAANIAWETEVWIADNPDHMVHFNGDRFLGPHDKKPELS

[8] = target: T8, BamHI-HF E163A/E167T (Bacillus amyloliquefaciens) (UniProt P23940); conditions: NEB4, 37 C
T8 sequence: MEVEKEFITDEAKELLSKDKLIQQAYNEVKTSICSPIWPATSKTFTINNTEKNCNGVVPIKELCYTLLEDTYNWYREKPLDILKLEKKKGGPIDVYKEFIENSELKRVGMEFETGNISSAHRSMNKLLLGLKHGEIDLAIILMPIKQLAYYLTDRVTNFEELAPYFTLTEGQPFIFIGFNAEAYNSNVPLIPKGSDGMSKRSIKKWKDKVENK

[9] = target: T9, ScaI-HF H193A/S201F (Streptomyces caespitosus) (UniProt O52691); conditions: NEB4, 37 C
T9 sequence: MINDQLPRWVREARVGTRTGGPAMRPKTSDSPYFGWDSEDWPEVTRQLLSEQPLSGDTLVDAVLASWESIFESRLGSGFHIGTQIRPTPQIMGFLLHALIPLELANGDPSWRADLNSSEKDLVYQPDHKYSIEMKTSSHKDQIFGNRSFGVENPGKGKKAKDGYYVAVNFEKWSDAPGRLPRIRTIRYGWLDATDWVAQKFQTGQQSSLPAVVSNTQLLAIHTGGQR

BstXI = conditions: NEB4, 55 C
[10] = system: T10, NcoI-HF A2T/R31A (Nocardia corallina); conditions: NEB4, 37 C
T10 sequence: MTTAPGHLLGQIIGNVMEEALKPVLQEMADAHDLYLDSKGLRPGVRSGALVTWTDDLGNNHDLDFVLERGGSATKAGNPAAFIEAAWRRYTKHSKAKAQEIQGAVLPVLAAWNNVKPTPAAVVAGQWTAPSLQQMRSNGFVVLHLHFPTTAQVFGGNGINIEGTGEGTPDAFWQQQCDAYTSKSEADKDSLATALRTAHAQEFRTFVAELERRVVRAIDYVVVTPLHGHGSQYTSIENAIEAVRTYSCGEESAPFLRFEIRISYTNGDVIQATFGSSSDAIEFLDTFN

BstXI-HF N65A = conditions: NEB4, 55 C
[11] = system: T11, BspQI-HF K279P/R388F (Bacillus sphaericus); conditions: NEB4, 50 C
T11 sequence: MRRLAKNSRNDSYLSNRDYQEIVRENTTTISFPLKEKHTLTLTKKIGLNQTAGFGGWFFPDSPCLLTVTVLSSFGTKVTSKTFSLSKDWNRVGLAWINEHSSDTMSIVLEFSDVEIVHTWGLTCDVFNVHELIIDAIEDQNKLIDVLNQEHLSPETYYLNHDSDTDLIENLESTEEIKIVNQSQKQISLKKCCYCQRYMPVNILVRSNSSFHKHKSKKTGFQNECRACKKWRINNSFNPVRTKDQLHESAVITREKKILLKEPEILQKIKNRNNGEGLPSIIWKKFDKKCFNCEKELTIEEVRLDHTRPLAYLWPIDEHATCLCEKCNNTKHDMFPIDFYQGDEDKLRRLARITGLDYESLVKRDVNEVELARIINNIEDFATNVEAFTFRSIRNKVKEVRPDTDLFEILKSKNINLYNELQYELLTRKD

HindIII-digested lambda DNA
activity (fidelity index) [1]: 1 | activity (fidelity index) [2]: 32000

lambda phage DNA
activity (fidelity index) [3]: 250 | activity (fidelity index) (BsmBI-HF N185Y/R232A): 500 | activity (fidelity index) [4]: 8 | activity (fidelity index) [5]: 8000 | activity (fidelity index) [6]: 32 | activity (fidelity index) [7]: 4000 | activity (fidelity index) [8]: 4000 | activity (fidelity index) [9]: 1000 | activity (fidelity index) (BstXI): 4 | activity (fidelity index) [10]: 64000 | activity (fidelity index) (BstXI-HF N65A): 250

pUC19
activity (fidelity index) [11]: 4000
